The values that follow come from patent EP2467164A2 (dated 2012).

Test [1] addresses T1, ErbB3 expressed on MALME-3M melanoma cells (human, UniProt P21860 20-1342).
T1 construct: Endogenous ErbB3 of the MALME-3M cell line; also called ErbB3 on MALME-3M cells
As to the kind of experiment: cell binding assay on MALME-3M cells, flow cytometry, one-site model. On the technique in general: Flow cytometry measures light scatter and fluorescence of single cells or particles in a stream.

Test [2] addresses T2, recombinant ErbB3 (human, UniProt P21860 20-643).
T2 construct: also called HER3
As to the kind of experiment: surface plasmon resonance, antibody as ligand, recombinant ErbB3 as analyte. Background: SPR reads the build-up and loss of mass on a sensor chip optically.

Test [3] concerns the target ErbB3 on AdrR cells (human, UniProt P21860 20-1342). As to the kind of experiment: cell-based or functional assay.
Test [4] deals with T3, ErbB3 (human, UniProt P21860 20-643, limits assumed).
T3 construct: also called ErbB3 domain; HER3
As to the kind of experiment: KinExA. Background: Kinetic exclusion samples the free partner from a solution-phase mixture.

Test [5] addresses T4, ErbB1 on AdrR cells (UniProt P00533 25-1210, limits assumed).
T4 construct: whole, on cells; also called EGFR; ErbBl
As to the kind of experiment: flow cytometry, biotinylated BTC (Figure 15).

B1: Ab #3 (antibody, V domains shown)
VH: EVQLLESGGGLVQPGGSLRLSCAASGFTFSAYNMRWVRQAPGKGLEWVSVIYPSGGATRYADSVKGRFTISRDNSKNTLYLQMNSLRAEDTAVYYCARGYYYYGMDVWGQGTLVTVSS
VL: QSVLTQPPSASGTPGQRVTISCSGSDSNIGRNYIYWYQQFPGTAPKLLIYRNNQRPSGVPDRISGSKSGTSASLAISGLRSEDEAEYHCGTWDDSLSGPVFGGGTKLTVL
Turning to B1, the dissociation constant (Kd) (as a rule, the concentration at which binding is half-saturated) in test [1] was roughly 1.3 nM; in test [2], roughly 8 nM.

B2: Ab #6 (antibody, V domains shown)
VH: EVQLLESGGGLVQPGGSLRLSCAASGFTFSHYVMAWVRQAPGKGLEWVSSISSSGGWTLYADSVKGRFTISRDNSKNTLYLQMNSLRAEDTAVYYCTRGLKMATIFDYWGQGTLVTVSS
VL: QSALTQPASVSGSPGQSITISCTGTSSDVGSYNVVSWYQQHPGKAPKLIIYEVSQRPSGVSNRFSGSKSGNTASLTISGLQTEDEADYYCCSYAGSSIFVIFGGGTKVTVL
notes: also called MM-121; anti-ErbB3 antibody Ab #6
Consider B2, for which, in test [3], the “BTC-induced ErbB3 phosphorylation in AdrR cells (IC50)” value is 5.9 nM and the “HRG-induced ErbB3 phosphorylation in AdrR cells (IC50)” value came out at 2.4 nM. Further, in test [4], the equilibrium dissociation constant (Kd) is 0.769 nM; the off-rate constant (koff) – broadly, the rate constant with which the complex falls apart – was 0.00011 s⁻¹; the kon (usually a measure of how fast the partners come together) is 143000 M⁻¹ s⁻¹. The same molecule came in with an equilibrium dissociation constant (Kd) in test [1] of roughly 4 nM. In addition, the Kd in test [2] was roughly 4 nM.

B3: betacellulin (ligand, UniProt P35070 32-111, looked up)
chain: DGNSTRSPETNGLLCGDPEENCAATTTQSKRKGHFSRCPKQYKHYCIKGRCRFVVAEQTPSCVCDEGYIGARCERVDLFY
modifications: biotinylated in the FACS assay of Example 7 (site not stated)
notes: also called BTC; biotinylated BTC
B3: the binding result in test [5] is on record as “binds”.
